Data published in patent US11939377B2, “Affinity matured CD22-specific monoclonal antibody and uses thereof” (The U.S.A., as represented by the Secretary, Department of …, priority 2018, dated 2024).

Tests used:
[1] = tested on: CD22 expression on ALL and DLBCL cell lines (Nalm6, Kopn8, SEM, Pfeiffer, Toledo, PDX); assay: CD22 expression on leukemia/lymphoma cells by flow cytometry after drug exposure in vitro; assay type: cell-based, human; settings: Enzastaurin 10 μM, Staurosporine 100 μM, 24 hours
Protocol: FIGS. 3A-3D: (FIG. 3A) Four cell lines (Nalm6, Kopn8, Pfieffer and Toldeo) were co-incubated with 1 ng/ml Bryostatin 1 for 24 hours and analyzed using flow cytometry one day after Bryostatin 1 exposure. Site density was analyzed using standardized Quantibrite-PE beads. (FIG. 3B) Cell lines were co-incubated with 1 ng/ml Bryostatin 1 for 24 hours, washed, and analyzed using flow cytometry at 1 and 7 days after Bryostatin 1 exposure. Fold change was calculated based on site density: (Cell line Bryostatin 1—Cell line DMSO)/Cell line DMSO. (FIG. 3C) NSG mice were injected with 1×10^6 GPF-positive Nalm6 leukemia cells on Day 0. Bryostatin 1 was administered at 0.8 μg/kg on Day 3. Mice were sacrificed 7 and 12 days after Bryostatin 1 injection and CD22 was evaluated by flow cytometry. (FIG. 3D) CD22-low relapse PDX cell line was cultured in vitro with 1 nmol/L Bryostatin 1 for 24 hours and measured for CD22 expression using CD22 antibody.
FIGS. 10A-10E: (FIG. 10A) Three cell lines (Toldeo, Kopn8 and Nalm6) were co-incubated with Bryostatin 1 at varying concentrations for 24 hours. At 24 hours, cells were collected for protein kinase C (PKC)-βII isoform analysis by western blot. (FIG. 10B) KOPN8 or SEM cell lines were exposed to Bryostatin 1 for 16, 24, 48 or 72 hours. RNA was extracted from cells and analyzed using RNAseq. (FIG. 10C) Immunofluorescent staining of CD22 was conducted through permeabilization followed by staining of CD22. (FIG. 10D) Four cell lines were co-incubated with various combinations of Enzastaurin (10 μM), Staurosporine (100 μM), or Bryostatin 1 (1 nM) for 24 hours. CD22 expression was assessed using flow cytometry. MFI fold change=CD22 MFI^Bryostatin1/CD22 MFI^DMSO. (FIG. 10E) Cell lines were co-incubated with 1 nM Bryostatin 1 for 24 hours and measured for CD22 expression using CD22-PE antibody. MFI fold change=CD22 MFI^Bryostatin 1/CD22 MFI^DMSO.
FIG. 11: CD22^lo or parental Nalm6 cell lines were exposed to 1 ng/ml Bryostatin 1 for 24 hours. CD22 expression was assessed using flow cytometry.
For all in vitro experiments and tumor/CAR pretreatment prior to intravenous injection, Bryostatin 1 was administered to cells at a concentration of 1 ng/mL. Dimethyl sulfoxide (DMSO) vehicle control was administered to control-treated cells at an equal volume. Prior to co-culture or intravenous injection, Bryostatin 1- and DMSO-treated cells were washed 3x in sterile PBS. For all in vivo experiments, Bryostatin 1 was diluted in PBS and administered via intraperitoneal injection at a dose of 40 μg/kg (1 μg/25 g mouse). For control-treated groups, an equal volume of DMSO was diluted in PBS and administered in the same manner
FACS analysis of cell surface CAR and protein expression was performed using an LSR II Fortessa flow cytometer (BD Biosciences). CD22-CAR was detected by incubation with 22-Fc (R&D Systems), followed by incubation with human IgG-specific PE-F(ab)2 (Thermo Fisher Scientific). The following human monoclonal antibodies were used for detection of cell surface proteins: CD22-APC, CD22-PE, CD19-Pacific Blue, CD45-PerCP/Cy5.5, CD3-APC/Cy7, PD1-PE/Cy7, LAG3-APC, TIM3-Pacific Blue, CD8-APC, CD8-PE/Cy7, CD45RA-APC, CD45RO-PE/Cy7, CCR7-Pacific Blue, CD4-Pacific Blue, CD69-APC (all from BioLegend). CD22 site density was determined using QuantiBrite-PE beads (BD Biosciences) using methods previously described (Jasper et al., Cytometry B Clin Cytom 80(2):83-90, 2011). Dead cells were identified using eFluor 506 fixable viability dye (Thermo Fisher Scientific). GFP-expressing leukemia cells were identified through the FITC channel.

[2] = target: CD22 extracellular domain (ECD) (Homo sapiens, UniProt P20273); assay: BIAcore surface plasmon resonance of scFv binding to immobilized CD22 ECD-Fc
Protocol: FIGS. 13A-13F: (FIG. 13A) BIAcore analysis was used to evaluate association and dissociation curves of various scFvs. […] (FIG. 13B) CD22^V1 or CD22 CART were co-cultured with CD22^neg or CD22^lo leukemia and evaluated at 24 hours for PD1 expression through flow cytometry on a Fortessa flow machine. (FIGS. 13C-13F) Mice were injected with CD22^lo or Nalm6 leukemia on Day 0. […] Bone marrow cells were stained for flow cytometry and analyzed on Fortessa flow machine. Statistics were calculated using unpaired t-test (** p<0.0021).
Purified CD22 ECD-Fc fusion protein was diluted in 10 mM acetic acid buffer, pH 5.0, immobilized on a CMS biosensor chip for 1400 RU using an amine coupling kit. The running buffer was HBS-EP (10 mM HEPES, pH 7.4, 150 mM NaCl, 3 mM EDTA, 0.05% surfactant P20). The scFvs diluted in running buffer were allowed to flow through the cells at concentrations 0.32, 1.6, 8, 40 and 200 nM. After a 10-minute of dissociation, the chip was regenerated with 10 mM acetic acid, pH 4.0, 0.5 M NaCl. The data were fitted with 1:1 binding model and the dissociation rate constant was estimated with the BIAevaluation software.

affinity relative to original scFv m971 ([2]; as measured by BIAcore) | Kd ([2]; scFv, bound from instrument limit kd) | Kd ([2]; scFv, bound from instrument limit kd 1.0×10^−5 / 5.6×10^5) | calculated dissociation rate constant kd ([2]; scFv, lower than the kd measurable by BIAcore X-100 (1.0×10^−5 l/s)) | Molecule | upregulation of CD22 [1]
– | – | – | – | Cn1cc(C2=C(c3cn(C4CCN(Cc5ccccn5)CC4)c4ccccc34)C(=O)NC2=O)c2ccccc21 [Enzastaurin] | neither the PKCβII inhibitor, Enzastaurin, nor a broad PKC inhibitor, Staurosporine, was able to upregulate CD22
– | – | – | – | CN[C@@H]1C[C@H]2O[C@@](C)([C@@H]1OC)n1c3ccccc3c3c4c(c5c6ccccc6n2c5c31)C(=O)NC4 [Staurosporine] | neither the PKCβII inhibitor, Enzastaurin, nor a broad PKC inhibitor, Staurosporine, was able to upregulate CD22
more than 1000 fold | < 0.018 nM | < 0.018 nM | 1.1e-06 L/s | m971-L7: affinity matured human monoclonal antibody specific for CD22; VH SEQ ID NO: 4, VL SEQ ID NO: 5, scFv SEQ ID NO: 6 (antibody, V domains shown) VH: QVQLQQSGPGMVKPSQTLSLTCAISGDSVSSNSVAWNWIRQSPSRGLEWLGRTYYRSTWYNDYAVSMKSRITINPDTNKNQFSLQLNSVTPEDTAVYYCAREVTGDLEDAFDIWGQGTMVTVSS VL: DIQMIQSPSSLSASVGDRVTITCRASQTIWSYLNWYRQRPGEAPNLLIYAASSLQSGVPSRFSGRGSGTDFTLTISSLQAEDFATYYCQQSYSIPQTFGQGTKLEIK | –
